Assay results: the domain aggregation screens of Martell et al. (2025)

Assay: soluble fraction after stress (log2 fold change); higher = more stays soluble; pooled small domains, quantitative proteomics
Conditions: stress: pH 4
In short: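 After pH 4 stress, pooled custom libraries of small protein domains were quantified with high-throughput quantitative proteomics. Aggregation propensity is taken from the fold change in each domain's soluble amount following the acid stress. The scale is log2, where higher values mean more stayed soluble.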

Point of comparison: “HMQNELAEARSQLAERKNIDQAKLILMKKRNISEPEAYKLLRSHAMQTNRRVAEVAESIITAESLLG”, “soluble fraction (log2)” value 0.0831. Against it:
- HMTGVEAIERYLASGVIPGVGPVLAKRLVERFGARTLEVIEDSPRRLTQVPGIGRQKARQIHQALKAQRE — within 0.2 log units, 0.0508
- HMNDTVGMNIRRLRKERGMTQGDLADKAGIQRETISKYESNKLTPPSYNLESIEKALKVPAGTLAQ — within 0.2 log units, 0.22
- HMLSYDDTVVIGRNLLENAMKQKNIALEQLTDEVLARLAKELQVESVEAMYAGIGSGKRPSSFIINRLEAH — lower, -0.454
- HMSGSPREQAESEYRKAIAAVNQGRVSEATESLRAALRLDAFQVAARQLLVKLLLEAKNQDEAIQVLR — lower, -0.489
- HMTQGRVTGDGVNVRSQPNTDSAILTRVSTGKVVELISLKDNWYNVVVNGTKGYIRADYVSPYDG — within 0.2 log units, 0.00816
- HMNREENIQIGRDLLERELRKQGMDLQENLRQEVLLDGAKKLGFNNTDDLLAAIGDLKVTPAMFIGKIA — lower, -0.168
- HMDYKSKLQELVQTEKRTVEYKLVDESGPAHNKSFTFEVVISGIKYGSGTGASKKIAEQNAAKEALEKLA — within 0.2 log units, 0.144
- HMGKELTVPDVVGQNYVSAQEKLIAGGFQVEVADSVYDSRYGRGVVVDQNPHKDTRVKPGRLIYVTVNA — within 0.2 log units, 0.0611
- HMQPIQPNQAKYLDGLSSKYKGKGNHSQAAQLTALRDALNAGDHAKAREIYDKLDYEPQAEAAH — within 0.2 log units, 0.105
- HMVEVPNVSNLTLEQAENKLIQQGLQVKLEGQGEKVVAQIPQPGAVVNKKSTVILF — within 0.2 log units, 0.0373
- HMELPSDEHLDDISHLARIGHKKGLQEKIIQLEQQGLASAEFIQQLKTLTNNFQFEKIIQWVDSEL — lower, -0.848
- HMENTIPSVIGRTLSDGVFLLESYGYVKGNVSEEFSEMPIGVIIRQFPGAGSAAEAGTRVDLVVSKGEEIV — lower, -0.316
- HMDTIRINSGSTVKEVAEYLGIPVPEVIKKLMSMGELATLTKTLSDDHIEVLAEEFEKKIKIVHVGEEAD — lower, -0.61
- HMKESFAQLFSLLTPTEQKVAALISQGFSNKDIAAKMFISLSTVKTHTNHIFAKMGVANRNALVAKVNN — within 0.2 log units, -0.0677
- HMELDIGKKAIVIEKIDPEAGTGRVRIEGVDWGAKTADSSVIEKGETVVVKAKGAAFVTVAK — within 0.2 log units, 0.0671
- HMKKLPDDANDIIERVSSRLAQKFRFGYHTIDDMKQQAALFAWEGIYDSWDDSRPLENFLWIHVRNRLYN — within 0.2 log units, 0.18
- HMTLNTQLFTWKKGVRVGEDDQGNIYYRTKDDKRRWVIFTGETEATKVSPDWHGWLHRTWATPPNK — lower, -0.14
- HMKQNVEAVIKERAIEKARAQVKAVSTHMALEAQSLSKEQLEFEIERIAAQIIDKMPSDFWND — lower, -0.819
- HMQISDTTELSTLITKVLSEQSDALVDFKNPKKQKQVIGYLTGQVLRASQGKANPGLVRSLLEEQLSALDS — within 0.2 log units, 0.0677
- HMFERIYVFSRDGDIIELPKGSTVLDFAYHVHTHVGNRAQAARVNKRYVPLTYQLKTGEQVEIIIS — lower, -1.05
- HMRTTYKTRLETLLAGPMSAGDRRFASSLLDFYNRKNRLTPGRARFVAQLEDRYSAEALAARQG — within 0.2 log units, -0.00949
- HMVDQVDKDRFLEALTQLGGSAGNVRLRETLQWEEEVYVIIKDALVKSGTILTGRGRGGSVLLASA — lower, -0.909
- HMNREYELTAEESGQRLDKYLAGEMTDLSRSRIKELVQAGEILVNGKKSKVSYKVQKDDLIQVIVLPLE — within 0.2 log units, -0.0759
- HMDNRLFKMLYYLLDKERATAPELAAEFEVSTRTIYRDVEALSSAGIPIYAEPGRNGGIYLLQD — lower, -1.1
- HMKIDLPIWLNKKAWEAWVEYKKERKQKLTPSIIKFQLRILEKNKEDHPEIIRNSITNGWTGLFPLK — lower, -0.347
- HMVWPETEAIVTEDFIGKKRSEVQQEGVIFEFFGEGDMVIDQLPRGGVTLNESGRVWIYLGEDTF — lower, -1.4
- HMKQLNKRQNDILSFAEKQGYVSVENLAKLFSVTQQTIRRDINYLSDNELLVRTHGGAYYSS — within 0.2 log units, -0.0112
- HMLPRNKRIEIALTYIYGLGRHAATVVLKHANISPDKRTDDLDENDVRKLRDAIDANFRVEGDLRR — within 0.2 log units, -0.0555
- HMTVDAVALGRRVRHLRKQAGLTLDQLAERTGVSGSHLSLVENARREPRLSLVQRIAEVLGVPVEDL — lower, -0.602
- HMQLKKDTILSYIEEKLIDSYNSNKGFTTQEISVALNMQRTNVSAILNNLVKENKLVKTKGKPVRYFLSG — lower, -1.02
